Measured values reported in patent US10441663B2, “Methods for treating cancer” (Bicycle Therapeutics Limited, priority 2016, dated 2019).
“Also recorded” adds a separate entry of the source. *1 amine or outer side, *2 acyl side, *3 side chain or, on linkers, in order; H or OH if unused. Where a SMILES comes first, the peptide text is derived from it. Bridges are numbered along the chain shown (N, C = ends). [ ]: non-standard residue; d: D form. The star is where a group is joined. X1 = COc1cc2cc(c1Cl)N(C)C(=O)C[C@H](OC(=O)[C@H](C)N(C)C(=O)CCSSC(C)CCC(=O)*)[C@]1(C)O[C@H]1[C@H](C)[C@@H]1C[C@@](O)(NC(=O)O1)[C@H](OC)/C=C/C=C(\C)C2; 1Nal = N[C@@H](Cc1cccc2ccccc12)C(=O)O; TBMB = c1c(C[*:1])cc(C[*:3])cc1C[*:2]; Tle = CC(C)(C)[C@H](N)C(=O)O; βAla = NCCC(=O)O; Sar = CNCC(=O)O

System: EBC-1 xenograft
Experiment: Efficacy of BT1718 in EBC-1 xenograft model (Example 1)
Type: in vivo, Mus Musculus
Settings: for Tumor Size (mm^3): Mean ± SEM
Procedure: The objective of this study was to evaluate the anti-tumor efficacy of BT1718 in EBC-1 xenograft model in female BALB/c nude mice.
The EBC-1 tumor cells were maintained in vitro as a monolayer culture in EMEM medium supplemented with 10% heat inactivated fetal bovine serum at 37° C. in an atmosphere of 5% CO2 in air. The tumor cells will be routinely subcultured twice weekly by trypsin-EDTA treatment. The cells growing in an exponential growth phase will be harvested and counted for tumor inoculation.
Each mouse was inoculated subcutaneously at the right flank with EBC-1 tumor cells (10×10^6) in 0.2 ml of PBS for tumor development. The animals were randomized and treatment was started when the average tumor volume reaches approximately 165 mm^3 for the efficacy study.
All the procedures related to animal handling, care and the treatment in the study were performed according to the guidelines of the Association for Assessment and Accreditation of Laboratory Animal Care (AAALAC). At the time of routine monitoring, the animals were daily checked for any effects of tumor growth and treatments on normal behavior such as mobility, food and water consumption (by looking only), body weight gain/loss (body weights were measured every day), eye/hair matting and any other abnormal effect as stated in the protocol. Death and observed clinical signs were recorded on the basis of the numbers of animals within each subset.
The major endpoint was to see if the tumor growth could be delayed or mice could be cured. Tumor size was measured three times weekly in two dimensions using a caliper, and the volume was expressed in mm^3 using the formula: V=0.5 a×b^2 where a and b are the long and short diameters of the tumor, respectively. The tumor size was then used for calculations of T/C value. The T/C value (in percent) is an indication of antitumor effectiveness; T and C are the mean volumes of the treated and control groups, respectively, on a given day.
TGI was calculated for each group using the formula: TGI (%)=[1−(Ti−T0)/(Vi−V0)]×100; Ti is the average tumor volume of a treatment group on a given day, T0 is the average tumor volume of the treatment group on the day of treatment start, Vi is the average tumor volume of the vehicle control group on the same day with Ti, and V0 is the average tumor volume of the vehicle group on the day of treatment start.
Summary statistics, including mean and the standard error of the mean (SEM), are provided for the tumor volume of each group at each time point.
Statistical analysis of difference in tumor volume among the groups was conducted on the data obtained at the best therapeutic time point after the final dose.
A one-way ANOVA was performed to compare tumor volume among groups, and when a significant F-statistics (a ratio of treatment variance to the error variance) was obtained, comparisons between groups were carried out with Games-Howell test. All data were analyzed using Prism. P<0.05 was considered to be statistically significant.

SMILES: COc1cc2cc(c1Cl)N(C)C(=O)C[C@H](OC(=O)[C@H](C)N(C)C(=O)CCSSC(C)CCC(=O)NCCC(=O)N(C)CC(=O)N(C)CC(=O)N(C)CC(=O)N(C)CC(=O)N(C)CC(=O)N(C)CC(=O)N(C)CC(=O)N(C)CC(=O)N(C)CC(=O)N(C)CC(=O)N[C@@H](C)C(=O)N[C@H]1CSCc3cc4cc(c3)CSC[C@H](NC(=O)[C@@H](C)NC(=O)[C@H](Cc3cccc5ccccc35)NC(=O)[C@H](CCC(=O)O)NC(=O)[C@H](CC(N)=O)NC(=O)[C@@H](C)NC1=O)C(=O)N[C@@H](CCC(=O)O)C(=O)N[C@@H](CC(=O)O)C(=O)N[C@@H](Cc1ccccc1)C(=O)N[C@@H](Cc1ccc(O)cc1)C(=O)N[C@@H](CC(=O)O)C(=O)N[C@@H](C(C)(C)C)C(=O)N[C@H](C(N)=O)CSC4)[C@]1(C)O[C@H]1[C@H](C)[C@@H]1C[C@@](O)(NC(=O)O1)[C@H](OC)/C=C/C=C(\C)C2 (stereo partly shown) [BT1718] ({X1-βAla}-[Sar][Sar][Sar][Sar][Sar][Sar][Sar][Sar][Sar][Sar]AC[dA]NE[1Nal][dA]CEDFYD[Tle]C-NH2; linker 12-18-25 via TBMB (inferred))
- tumor growth (3 mg/kg, twice weekly for two weeks): significant reduction in tumor growth
- post-treatment monitoring (9 mg/kg qw group and 4.5 mg/kg biw group): re-growth after dosing cessation
- tumor response (10 mg/kg tiw): complete tumor clearance
- tumor response (10 mg/kg, twice weekly for two weeks): complete regressions
- body weight effect (30 mg/kg qw): marked body weight loss; also recorded: severe body weight loss
- tumor response (30 mg/kg qw, 15 mg/kg biw, 10 mg/kg tiw and 4.3 mg/kg qd, by day 14): completely regressed the tumor
- Body Weight (1.3 mpk qd, day 0): 25.1 ± 0.3 g
- Body Weight (% Change) (1.3 mpk qd, day 0): 0.0%
- Tumor Volume (1.3 mpk qd, day 0): 161 ± 22 mm^3
- Body Weight (1.3 mpk qd, day 2): 24.6 ± 0.6 g
- Body Weight (% Change) (1.3 mpk qd, day 2): −2.0 ± 2.6%
- Tumor Volume (1.3 mpk qd, day 2): 204 ± 30 mm^3
- Body Weight (1.3 mpk qd, day 4): 24.9 ± 0.5 g
- Body Weight (% Change) (1.3 mpk qd, day 4): −0.8 ± 1.7%
- Tumor Volume (1.3 mpk qd, day 4): 243 ± 36 mm^3
- Body Weight (1.3 mpk qd, day 7): 24.2 ± 0.5 g
- Body Weight (% Change) (1.3 mpk qd, day 7): −3.5 ± 1.3%
- Tumor Volume (1.3 mpk qd, day 7): 278 ± 35 mm^3
- Body Weight (1.3 mpk qd, day 9): 24.5 ± 0.5 g
- Body Weight (% Change) (1.3 mpk qd, day 9): −2.2 ± 2.0%
- Tumor Volume (1.3 mpk qd, day 9): 326 ± 46 mm^3
- Body Weight (1.3 mpk qd, day 11): 25.4 ± 0.4 g
- Body Weight (% Change) (1.3 mpk qd, day 11): 1.3 ± 1.4%
- Tumor Volume (1.3 mpk qd, day 11): 370 ± 40 mm^3
- Body Weight (1.3 mpk qd, day 14): 25.2 ± 0.8 g
- Body Weight (% Change) (1.3 mpk qd, day 14): 0.5 ± 3.2%
- T/C (%) (1.3 mpk qd, day 14): 38%
- TGI (%) (1.3 mpk qd, day 14): 71%
- Tumor Volume (1.3 mpk qd, day 14): 473 ± 44 mm^3
- Tumor Size (mm^3) (1.3 mpk qd, day 14): 473 ± 44 mm^3
- Body Weight (3 mpk tiw, day 0): 24.0 ± 0.2 g
- Body Weight (% Change) (3 mpk tiw, day 0): 0.0%
- Tumor Volume (3 mpk tiw, day 0): 165 ± 13 mm^3
- Body Weight (3 mpk tiw, day 2): 23.8 ± 0.3 g
- Body Weight (% Change) (3 mpk tiw, day 2): −1.0 ± 0.9%
- Tumor Volume (3 mpk tiw, day 2): 251 ± 18 mm^3
- Body Weight (3 mpk tiw, day 4): 24.1 ± 0.3 g
- Body Weight (% Change) (3 mpk tiw, day 4): 0.3 ± 0.7%
- Tumor Volume (3 mpk tiw, day 4): 381 ± 26 mm^3
- Body Weight (3 mpk tiw, day 7): 24.5 ± 0.2 g
- Body Weight (% Change) (3 mpk tiw, day 7): 2.0 ± 0.2%
- Tumor Volume (3 mpk tiw, day 7): 501 ± 41 mm^3
- Body Weight (3 mpk tiw, day 9): 24.7 ± 0.2 g
- Body Weight (% Change) (3 mpk tiw, day 9): 2.8 ± 0.6%
- Tumor Volume (3 mpk tiw, day 9): 525 ± 40 mm^3
- Body Weight (3 mpk tiw, day 11): 24.7 ± 0.2 g
- Body Weight (% Change) (3 mpk tiw, day 11): 3.1 ± 1.0%
- Tumor Volume (3 mpk tiw, day 11): 540 ± 46 mm^3
- Body Weight (3 mpk tiw, day 14): 25.1 ± 0.2 g
- Body Weight (% Change) (3 mpk tiw, day 14): 4.6 ± 1.5%
- T/C (%) (3 mpk tiw, day 14): 52%
- TGI (%) (3 mpk tiw, day 14): 56%
- Tumor Volume (3 mpk tiw, day 14): 644 ± 56 mm^3
- Tumor Size (mm^3) (3 mpk tiw, day 14): 644 ± 56 mm^3
- Body Weight (4.3 mpk qd, day 0): 24.8 ± 0.4 g
